B1: DNA polymerase delta small subunit (Saccharomyces cerevisiae), P46957 (parent)
chain: MDALLTKFNEDRSLQDENLSQPRTRVRIVDDNLYNKSNPFQLCYKKRDYGSQYYHIYQYRLKTFRERVLKECDKRWDAGFTLNGQLVLKKDKVLDIQGNQPCWCVGSIYCEMKYKPNVLDEVINDTYGAPDLTKSYTDKEGGSDEIMLEDESGRVLLVGDFIRSTPFITGVVVGILGMEAEAGTFQVLDICYPTPLPQNPFPAPIATCPTRGKIALVSGLNLNNTSPDRLLRLEILREFLMGRINNKIDDISLIGRLLICGNSVDFDIKSVNKDELMISLTEFSKFLHNILPSISVDIMPGTNDPSDKSLPQQPFHKSLFDKSLESYFNGSNKEILNLVTNPYEFSYNGVDVLAVSGKNINDICKYVIPSNDNGESENKVEEGESNDFKDDIEHRLDLMECTMKWQNIAPTAPDTLWCYPYTDKDPFVLDKWPHVYIVANQPYFGTRVVEIGGKNIKIISVPEFSSTGMIILLDLETLEAETVKIDI
partner: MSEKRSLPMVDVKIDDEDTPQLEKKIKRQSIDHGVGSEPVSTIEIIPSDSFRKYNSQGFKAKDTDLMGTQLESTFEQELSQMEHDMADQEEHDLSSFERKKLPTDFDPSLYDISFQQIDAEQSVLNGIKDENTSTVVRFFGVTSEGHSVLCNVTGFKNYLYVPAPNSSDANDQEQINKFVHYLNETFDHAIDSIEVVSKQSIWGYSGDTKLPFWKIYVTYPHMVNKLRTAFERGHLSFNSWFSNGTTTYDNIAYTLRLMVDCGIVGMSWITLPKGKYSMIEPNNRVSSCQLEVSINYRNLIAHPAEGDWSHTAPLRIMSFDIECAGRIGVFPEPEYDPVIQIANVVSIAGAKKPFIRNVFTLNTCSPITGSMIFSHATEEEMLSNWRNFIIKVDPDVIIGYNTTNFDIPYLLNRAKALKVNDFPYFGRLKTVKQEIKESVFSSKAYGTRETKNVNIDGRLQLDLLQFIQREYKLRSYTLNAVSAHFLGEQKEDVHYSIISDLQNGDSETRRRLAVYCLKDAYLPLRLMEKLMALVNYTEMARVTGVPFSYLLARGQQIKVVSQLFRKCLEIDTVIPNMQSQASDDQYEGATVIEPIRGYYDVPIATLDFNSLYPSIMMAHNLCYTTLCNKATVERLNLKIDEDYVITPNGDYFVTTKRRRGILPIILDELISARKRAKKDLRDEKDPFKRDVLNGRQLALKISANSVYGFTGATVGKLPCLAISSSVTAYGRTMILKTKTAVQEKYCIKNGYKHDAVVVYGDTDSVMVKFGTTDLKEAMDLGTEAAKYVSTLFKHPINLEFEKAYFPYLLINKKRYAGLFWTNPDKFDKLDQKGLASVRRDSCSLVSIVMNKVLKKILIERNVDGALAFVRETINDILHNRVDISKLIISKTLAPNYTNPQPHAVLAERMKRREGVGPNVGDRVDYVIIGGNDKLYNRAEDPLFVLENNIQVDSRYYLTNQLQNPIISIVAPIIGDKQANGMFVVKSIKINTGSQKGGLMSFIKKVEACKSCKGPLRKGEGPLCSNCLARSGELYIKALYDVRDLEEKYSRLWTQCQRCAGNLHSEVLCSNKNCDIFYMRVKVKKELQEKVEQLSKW
B2: DNA polymerase delta catalytic subunit (Saccharomyces cerevisiae), P15436 (parent)
chain: B1 partner
partner: B1 chain
B3: DNA polymerase delta catalytic subunit (Schizosaccharomyces pombe (strain ATCC 38366 / 972)), P30316 (parent)
chain: MTDRSSNEGVVLNKENYPFPRRNGSIHGEITDVKRRRLSERNGYGDKKGSSSKEKTSSFEDELAEYASQLDQDEIKSSKDQQWQRPALPAINPEKDDIYFQQIDSEEFTEGSVPSIRLFGVTDNGNSILVHVVGFLPYFYVKAPVGFRPEMLERFTQDLDATCNGGVIDHCIIEMKENLYGFQGNEKSPFIKIFTTNPRILSRARNVFERGEFNFEELFPVGVGVTTFESNTQYLLRFMIDCDVVGMNWIHLPASKYQFRYQNRVSNCQIEAWINYKDLISLPAEGQWSKMAPLRIMSFDIECAGRKGVFPDPSIDPVIQIASIVTQYGDSTPFVRNVFCVDTCSQIVGTQVYEFQNQAEMLSSWSKFVRDVDPDVLIGYNICNFDIPYLLDRAKSLRIHNFPLLGRIHNFFSVAKETTFSSKAYGTRESKTTSIPGRLQLDMLQVMQRDFKLRSYSLNAVCSQFLGEQKEDVHYSIITDLQNGTADSRRRLAIYCLKDAYLPQRLMDKLMCFVNYTEMARVTGVPFNFLLARGQQIKVISQLFRKALQHDLVVPNIRVNGTDEQYEGATVIEPIKGYYDTPIATLDFSSLYPSIMQAHNLCYTTLLDSNTAELLKLKQDVDYSVTPNGDYFVKPHVRKGLLPIILADLLNARKKAKADLKKETDPFKKAVLDGRQLALKVSANSVYGFTGATNGRLPCLAISSSVTSYGRQMIEKTKDVVEKRYRIENGYSHDAVVIYGDTDSVMVKFGVKTLPEAMKLGEEAANYVSDQFPNPIKLEFEKVYFPYLLISKKRYAGLFWTRTDTYDKMDSKGIETVRRDNCPLVSYVIDTALRKMLIDQDVEGAQLFTKKVISDLLQNKIDMSQLVITKALSKTDYAAKMAHVELAERMRKRDAGSAPAIGDRVAYVIIKGAQGDQFYMRSEDPIYVLENNIPIDAKYYLENQLSKPLLRIFEPILGEKASSLLHGDHTRTISMAAPSVGGIMKFAVKVETCLGCKAPIKKGKTALCENCLNRSAELYQRQVAQVNDLEVRFARLWTQCQRCQGSMHQDVICTSRDCPIFYMRIAEHKKLQQSVDLLKRFDEMSW
partner: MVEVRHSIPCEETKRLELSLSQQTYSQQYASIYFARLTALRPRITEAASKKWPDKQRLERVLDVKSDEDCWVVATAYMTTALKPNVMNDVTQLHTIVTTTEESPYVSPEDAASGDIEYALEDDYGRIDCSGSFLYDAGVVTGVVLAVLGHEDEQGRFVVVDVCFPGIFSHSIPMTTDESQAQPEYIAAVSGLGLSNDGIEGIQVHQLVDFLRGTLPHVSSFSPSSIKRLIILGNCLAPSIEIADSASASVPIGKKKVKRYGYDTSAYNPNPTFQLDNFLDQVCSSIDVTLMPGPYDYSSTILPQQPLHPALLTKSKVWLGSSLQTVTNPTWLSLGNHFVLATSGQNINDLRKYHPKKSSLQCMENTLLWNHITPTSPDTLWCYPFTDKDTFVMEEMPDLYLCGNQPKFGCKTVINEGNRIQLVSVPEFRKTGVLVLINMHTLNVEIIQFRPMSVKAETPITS

Variants of: B1
Conditions: with dpod_yeast POL3, P15436

| effect of a mutation on the interaction | Variant |
| --- | --- |
| increasing interaction | K358E |

Variants of: B2
Conditions: with dpod2_yeast POL31, P46957

| Variant | effect of a mutation on the interaction |
| --- | --- |
| C1059A | decreasing interaction |
| E1047A | decreasing interaction |
| H1064A | decreasing interaction |
| R1058A | decreasing interaction |
| Q1057A | decreasing interaction |
| C1074A | decreasing interaction |

Second part, the variant after the results:

| effect of a mutation on the interaction | Variant |
| --- | --- |
| decreasing interaction | C1056A |
| decreasing interaction | C1069A |

Variants of: B3
Conditions: with dpod2_schpo cdc1, P87324

| Variant | effect of a mutation on the interaction |
| --- | --- |
| C1043A | decreasing interaction |
| C1053A | decreasing interaction |

Results, then the variant that gave them:

| effect of a mutation on the interaction | Variant |
| --- | --- |
| decreasing interaction | C1040A |
| decreasing interaction | C1058A |
| decreasing interaction | C1058S |
